Laboratory results taken from the nanobody polyreactivity screen of Harvey et al. (2022).

Assay: yeast display, Sf9 membrane polyspecificity reagent, FACS + sequencing; frameworks hold sequencing errors
How it was run: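 Nanobodies from a synthetic yeast display library (Saccharomyces cerevisiae BJ5465), induced 36–48 hours with galactose, were stained 1 hour at 4 °C with 10% biotinylated, detergent-solubilized Sf9 membrane reagent, enriched on streptavidin microbeads, then FACS-sorted. Anti-HA (expression) and streptavidin (reagent binding) fluorescence set low and high (top ~1%) gates. Polyreactivity labels come from the gate of origin. Genes were colony-PCR amplified, MiSeq 2 × 250 sequenced and filtered by CDR length.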

Sequence	polyreactivity (PSR sort gate)
QVQLVESGGGLVQAGGSLRLSCAASGFIFYSNAMGWYRQEPGKERELLADINRGGTSTYYADSVKGRFTISRDNAKNTVYLQMNSLKPEDTAVYYCNAGLRYRSRLWNIYWYDYWGQGTQVTVSS	high polyreactivity
QVQLVESGGGLVQAGGSLRLSCAASGSTFRLYAMGWYRQAPGEERELVASITFSDSITSYADSVKGRFTISRDNAKNTVYLQMNSLKPEDTAVYYCDKDTSYENVVYTFDYDYWGQGTQVTVSS	low polyreactivity
QVQLVESGGGLVQAGGSLRLSCAASGSILTRYAMGWYRQAPGKERELVAANTYSGDSTYYADSVKGRFTISRDNAKNTVYLQMNSLKPEDTAVYYCAARKYYARYYWGQGTQVTVSS	high polyreactivity
QVQLVESGGGLVQAGGSLRLSCAASGSIFYGNAMGWYRQAPGKERELVAAISARGGSTNYADSVKGRFTISRDNAKNTVYLQMNSLKPEDTSVYYCAADTPVWSGYWYYYWGQGTQVTVSS	low polyreactivity
QVQLVESGGGLDQAGGSLRLSCAASGIIFARNAMGWYRQAPGKERELVAAISGSGGRTYYADSVKGRFTISRDNAKNTVYLQMNSLKPEDTAVYYCAAEYTYRAVALDYWGQGTQVTVSS	high polyreactivity
QVQLVESGGGLVQAGGSLRLSCAASGRTFWRYAMGWYRQAPGKERELVAAITSGGGSTYYADSVKGRFTISRDNAKNTVSLQMNSLKPEDTAVYYCNRAGRGRSFKGDYWGQGTQVTVSS	high polyreactivity
QVQVVESGGGLVQAGGSLRLSCAASGLTFIFNAMGWYRQAPGKERELVADISSGVNTNYADSVKGRFSISRDNEKNTVYLQMNSLKTEDTEVHYCADRLAQTTGYGYWGQGTQVNVSS	low polyreactivity
QVQLVESGGGLVQAGGSLRLSCAAYVRIIYDYAKGWYRQAPGKERELVAAISKGGGSTYYADSVKGRFTISRDNAKNTVYLQMNSLNPEDTAVYYCAASTSHTTDTRYDYLGQGTQVTVSS	low polyreactivity
QVQLVESGGGLVQAGGSLRLSCAASGRILAINVMGWYRQAPGKERELVAAITLSSGSTYYADSVKGRFTMSRDNAKNTVYFQMNSLKPEDTAVYYCAADVYSGLSEGYYWGQGTQVTVSS	low polyreactivity
QVQLVESGGGLVQAGGSLRLSCAASGRIFLWYAMGWYRQAPGKERELVAAIWRGGSTYYADSVKGRFTISRDNAKNTVYLQMNSLKPEDTAVYYCNAQRAPHWYYLFDYWGQGTQVTVSS	low polyreactivity
QVQLVESGGGLVQAGGSLRLSCAASGSTFCTYAMGWYRQAPGKERELVAAITQRGASTYYADSVKGRFTISRDNAKNTVYLQMNSLKPEDTAVYYCAAYKRGRPEMDYWGQGTQVSVSS	high polyreactivity
QVQLVESGGGLVQAGGSLRLSCADSGSILTRNAMGWYRQAPGKERELVAAISYSGVRTYYADSVKGRFTISRDNAKNNVYLQMNSLKQEDTAVYYCNAVISSRYDYWGQGTQVTVSS	high polyreactivity
QVQLVESGGGLVQAGGSLRLSCAASGRTFGINAMGWYRQAPGKERELVAVISFGDGGTYYADSVKGRFTISRDNAKNTVYLQMNSLKPEDTAVYYCAAAIWYIKLYFVRRTEHGYWGQGTQVTVSS	low polyreactivity
QVQLVESGGGLVQAGGPLRLSCAASGFTFGYYTMGWYRQAPGKERELVAAISWRGGRTYYADSVKGRFTISRDNAKNTVYLQMNSLKPEETAVYYCAAEYTYGWTYRPFVYWGQGTQVTVSS	high polyreactivity
QVQLVESGGGLVQAGGSLRLSCAASGRILSFYVMGWYRQAPGKERELVAAIRRGGSTYYADSVKGRFTISRDNAKNTVYLQMNSLKPEDTAVYYCNARQRPPPYYYWGQGTQVTVSS	high polyreactivity
QVQLVESGGGLVQAGGSLRLSCAASGRTFGLYTMGWYRQAPGKERELVAAISRSGGSTYYADSVKGRFTISRDNAKNTVYLQMNSLKPEDTAVYYCATRRSFSDRYDYWGQGTQVTVSS	high polyreactivity
QVQLVESGGGLVQARGSLRLSCAASGSIFTYNAMGWYRQAPGKERELVAAIDYSGGSTYYADSVKGRFTISRDNAKNTVYLQMKSLKPEDTAVYYCAAPWVPYPGYSLYGYDYWGQGTQVSVSS	low polyreactivity
QVQLVESGGGLVQAGGSLRLSCAASGFTFFYNAMGWYRQAPGKEREFVAAISGRGGRTYYADSVKGRFTISRDNAKNTVYLQMNSLKPEDTAVYYCNADYYPYGEYDYWGQGTQVTVSS	high polyreactivity
QVQLEESGGGLDQAGGSLRLTCAASGSIFLWNAMGWSRQSPGKERQLVAAISSGTSTIYADSVKGRFTISRDNAKNTVYLQMNSLKREDTAVYYCAARGRKNQRRYGYWGLGTQVTVSS	low polyreactivity
QVQLVESGGGLVQAGGSLRLSCAASGFTFAKNAMGWYRQAPGKERELVADITYSGGSTYADSVKGRFTISRDNAKNTVYLQMNSLKPEETAVYYCAADARRRSGYDYWGQGTQVSVSS	low polyreactivity
QVQLVESGGGLVQAGGTLRLSCAASGSTFPGYAIGSNRQAPGKERELVAAISVSGDRTYYADSVKGRFTISRDNAKNTVYLQMNSLKPEDTAVYYCAVRTRYRSYGVWVGNYSWGQGTQVTVSS	high polyreactivity
QVQLVESGGGLVQAGGSLRLSCAASGRTFSYNAMGWYRQAPGKERELVARISSGGSTNYADSVKGRFTISRDNAKNTVYLQMNSLKPEDTAVYYCNAGSYVWEEDYCGQGTQVTVSS	high polyreactivity

Sequence	polyreactivity (PSR sort gate)
QVHLVESGGGLVQAGGSLRLSCAASGFTFDYYAMGWYRQAPGKERELVAAISWSGASTYYADSVKGRFTISRDNAKNTVYLQMNSLKPEDTAVYYCNRPKWYDGDYWGQGTQVTVSS	high polyreactivity
QVQLVESGGGLVQAGGSLRLSCAASGRISRTNAMGWYRQAPGKERELVATITRGGNTNYADSVKGRFTISRDNAKNTVYLPMNSLKPEDTAVYYCAALGRYLRTYRGYVWQFDSWGQGTKVTVSS	high polyreactivity
QVQLVESGGGLVQAGGSLRLSCAASGSNFYIYAMGRYRQAPGKERELVAAISYSGGRTTYADSVKGRFTISRDYAKNTVYLQMNSLKPEDTAVYYCAAGFSYYGLAVAPYRSWGRYYNWGQGTQVTVSS	high polyreactivity
QVQLVESGGGLVQAGGSLRISCAASGSIFGVYAMGWYRQAPGKERELVAAIRSGGRTYYADSVKGRFTISRDNAKNTVYLQMNSLKPEDTAVYYCNAAFSSRVGRVQFYDYDYWGQGTQVTVSW	high polyreactivity
QVQLVESGGGLVQAGGSLRLSCAASGSTLRWYAMGWYRQAPGKERELVARISWTTGSTYYADSVKGRFTISRDNAKNTVYLQMNSLKPEDTAVYYCAKGKKSSRSGIYNYWGQGTQVTVSS	high polyreactivity
QVQLVESGGGLVQAGGSLRLSCAASGIIFRPYAMGWYRQAPGKERELVAAITGSGVSTYYADSVKGRFTISRDNAKNTVYLQMNCQKPEDTAVYYCAKRYNRGYHRYDYWGQGTQVTVSS	low polyreactivity
QVQLVESGGGLVQAGGSLRLSCAASGGIFPGNAMGWYRQAPGKERELVATISYSGGSTYYADSVKGRFTISRDYAKNTVYLQMNSLKPEDTAVYYCAARGYKPTRSRRTEYGYWGQGTQVTVSS	high polyreactivity
QVQLVESGAGLVQAAGSLSLSCASAGSTFFLYAMGRYRRAHGKVREFVAAISDTGGSTYYADSVKGRFTISRDNATNTVYLQMISLKPEDTACYYCNRVVASFYRSRYDYWGQGTQVTVSS	low polyreactivity
QVQLVESGGGLVQAGGSLRLSCAASGLIFRYYAMGWYRQAPGKERELVAAISLRGGSTYYADSVKGRFTISRDNAKNTVYLQMNSLKPEDTAVYYCAAQWAAFSVANQYGYWGQGTQVTVSS	high polyreactivity
QVQLVESGGGLVQAGGSLRLSCAHSGYILGGYGMGWYRQAPGKERELVAVITSSGSTDYADSVKGRYTISRDNAMNTVYVQMNTLKPEDSAGYYCAADFLWYIYNIGTSLEYDYWGQGTQVTVSS	low polyreactivity
QVQLVESGGGLVQAGGSLRLSCAASGSIFDLYAMGWYRQAPGKERELVAAITSTGSTYYADSVKGRFTISRDNAKNTVYLQMNSLKPEDTAVYYCAATRGSSEYYYWGQGTQVTVSS	low polyreactivity
QVQLVESGGGLVQAGGSLRLSCAASGSTFKQYAKGWYRQAPGKERELVAAISSVGRTYYADSVKGRFTISRDNAKNTVYLQINSLKPEDTAVYYCNRRWYTHWGQGTQVTVSS	high polyreactivity
QVQLVESGGGLVQAGGSLRLSCAASGSIFYGYAMGWYRQAPGKEREFVAAITWSGGSTHYADSVKGRFTNSRDNAKNTVYVQMNSLKPEDTAVYYCAAPSYGNYPYRSYVWYGYWGQGTQVTVSS	high polyreactivity
QVQLVESGGGLVQAGGSLRLSCAASGSIFLWYAMGWYRQAPGKERELVAAIDWSGGSTYYADSVKGRFTISRDNAKNTVYLQMNSLKPEDTAGYDCAAEWGNWYWWDYGYDYYYWGQGTQVTVSS	high polyreactivity
QVQLVESGGGLVQAGCSLRLSCAASGSIFYYYAMGWYRQAPGKERELVAAIRRSGSTTYADSVKGRFTISRDNAKNTVYLQMNSLKPEETAVYYCNVYGYGTEYDYWGQGTLVTVSS	high polyreactivity
QVQLVESGGGLVQAGVSLRLSCAASGLTFSKYAMGWYREAPGNERDLVAAITRGDRTYYADSVKGRFTISRDNAKNTVYLHMNSLKPADTAVYYCAARQYYWGQGTQVTVSS	high polyreactivity
QVQLVESGGGLVQAGGSLRLSCAASGSTFAWNVMGWYRQAPGKERELVAAISGRGGSTYYADSVKGRFTISRDNAKNTVYLQMNSLKPEDTAVYYCNKVYGRSRDVYDYDYWGQGTQVTVSS	high polyreactivity
QVQLQESGGGLVKAGGDLRLSCAASGNIFRDYIMGWYRQAPGKEREFVAGIDRGANTNYADSVKGRFTISRDNAKNTVYLQMNSLKPVDTAVYYCGVHTAIVPDFIYWGQGTQVTVSS	low polyreactivity
QVQLVESGGGLVQAGGSLRLSCAASGRICDSYTMGWYRQAPGKERELVAAISRGGGSTYYADSVKGRFTISRDNAQNTVYLQMNSLKPEDTAVYYCAASSYLNSRFKFDYWGQGTQVTVSS	low polyreactivity
QVQLVESGGGLVQAGGSLRLSCAASGRTLRYYAMGWYRQAPGKERELVAAITKSGGSTYYADSVKGRFTISRDNAKNTVYLQMTSLKPEDTAVYYCNKVTYSRAQYIGGDGYYWGQGTQVTVSS	high polyreactivity
QVQLVESGGGLVQAGGSLRLSCAASGSIFLQYTMGWYRQAPGKERELVAAITESDGSTYYADSVKGRFTISRDNAKNTVYLQMNSLKPEDTAVYYCAADVVYFKYWDKYDYWGQGTQVTVSS	low polyreactivity
